Test: yeast display, Sf9 membrane polyspecificity reagent, FACS + sequencing; frameworks hold sequencing errors
Outline: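 Galactose-induced (36–48 hours) yeast carrying a synthetic nanobody display library were exposed to 10% biotinylated, detergent-solubilized Sf9 membrane reagent at 4 °C for 1 hour. FACS followed streptavidin microbead enrichment, using low and high (top ~1%) gates for expression (anti-HA) and reagent binding (streptavidin). Colony PCR, MiSeq 2 × 250 sequencing and CDR-length filtering followed. Labels for polyreactivity reflect the gate of origin.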

Row | Sequence | polyreactivity (PSR sort gate)
1 | QVQLVESGGGLVQAGGSLRLSCAASGSIFYRNAMGWYRQAPGKERELVAAISASGGSTYYADSVKGRFTISRDNAKITVYLQMNSLKPEDTAVYYCAVEYRKSRSYAPMGYWGQGTQVTVSS | high polyreactivity
2 | QVQLVESGGGLVQAAGSLRLSCAASGRIFKLYAMGWYRQAPGKDRELVAGITASGGNTYYADSVKGRFTISRDNAKNTVYLLMNSLKPEDTAVYYCNADRYNKYWYDYWGQGTQVTVSS | high polyreactivity
3 | QVQLVESGGGLVQAGGSLRLSCAASGRTIRYYTMGWYRQAPGKEREFVAAISSTGGTYYADSVKGRFTISRDNAKNTVYLQMNSLKPEDTAVYYCAATFIQVVVNVQLYDYDYWGQGTQVTVSS | low polyreactivity
4 | QVQLVESGGGLVQAGGSLRLSCAASGSIFYGNAMGGYRQAPGKERELVASITYSGGNTQYADSVKGRFTISRDNAKNTVYLQMNSLKPEVTAVYYCNARRYGVDTGWRQGLDSWGQGTQVTVSS | low polyreactivity
5 | QVQLVESGGGLVQAGGSLRLSCAASGRIFRPYTMVWSRQAPGKERELVAAINSSGGRTYYADSVKGRFTISRDNAKNTVYLEMNSLKPEDTAVYYCAVGWVFYRASNMNYWGQGTQVTVSS | high polyreactivity
6 | QVQLVESGGGLVQAGGSLRLSCAASGGTFYIYVMGWYIQAPGKERELVAAITSGDSTNYADSVKGRFTISRDNAKNTVYLQMNSLKPEDTAVYYCATGYWELRYDYWGQGTQVTVSS | low polyreactivity
7 | QVQLVESGGGLVQAGGSLRLICAASGSIFRSYAMGWYRPAPGKERELVAAISSGGRTKYADSVKGRLTISRDNAKNTVYLQMNSLKPEDSAVYYCAARSVSATADFHYWGQGTQVTVSS | high polyreactivity
8 | QFQLVESGGGLVQAGGSLRLSCAASGRIFPQYAMGWSRQATGKERELVAGITSVGSTYYADSVKGRFTISRDNAKNTVYLQMNSLKPEDTAVYYCAAFYRGGDYWGQGTQVTVSS | high polyreactivity
9 | QVQLVESGGGLVQAGGSLRLSCAASGSTFPDYAMGWYRQAPGKERELVAAISYRGGSTNYADSVKGRFTISRDNAKNTVYLQMNSLKPEDTAVYYCATDDYYPQPFYYEYDYWGQGSQVTVSS | low polyreactivity
10 | QVQLEESGGGLVQAGGSLRLSCAASGRTFTLNAMGWYRQAPGKEREFVAAISNSGVRTYYADSVKGRFTISRDNAKNTVYLQMNSLKPEDTAVYYCARTYQVGDSIDDYWGQGTQVTVSS | low polyreactivity
11 | QVQLVESGGGLVQAGGSLRLSCAASGRTFYRNAMGWYRQAPGKERELVAAISRSGGRTYYADSVKGRFTISRDNAKNTVYLQMNSLKPEDTAVYYCNAQPTLAVADYDYWGQGTQVTVSS | high polyreactivity
12 | QVQLVESGGGLVQAGGSLRLSCAASGRTFDWNAMGWYRQAPGKERELVAAISGGGGSTYYADSVKGRFTISRDNAKNTVYLQMNSLKPEDTEVYYCATWNYYSYHRYDYWGQGTQVTVSS | high polyreactivity
13 | QVQLVESGGGLVQAGGSLRLSCAASGGIFSGNDMGWYRQAPGKERELVATITSDGSTNYSDSVKGRFTYSRDNAKNTVYLQMNSLKPEDTAVYYCAADGLYWWMYYWGQGTQVTVSS | low polyreactivity
14 | QVQLLESGGGLVQAGGFLRLSCASSGSTFFIYAMGWYRPAPGKERELDAAISWSGGSTYYADSVKGRFTISPDKANNTVYLQMICLKPEYTAVYYCADESYYFDEYYWGQATQVTVSS | high polyreactivity
15 | PVQLVVSGGGLVQAGGSLRLRGAASGSSFSQNAMGWSRPAPGKDRELVAAITSGGITYYADSVKGRFTISRDNAKNTVYLQMNSLKPEDTAVYDCAADYWPSGRGVAFDYWGQGTQVTVSS | low polyreactivity
16 | QVQLVESGGGLVQAGGSLRLSCAASGSTFFANTMGWYRQAPGKERELVAAIRDSGGSTYYADSVKGRFTISRDNSKNTVYLQMNSLKPEDTAVYYCSARYLVYGYPYRFYYWGQGTQVTVSS | high polyreactivity

Row | Sequence | polyreactivity (PSR sort gate)
17 | QDQLVESGGGLVQAGGSLRLSCAASGFIFSWYAMGWYRQPPGKERELVAGISIRGGRTYADSVKGRFTISRDNAKNTVYLQMNSLKPDDTAVYYCATRSYRPYHSLYDYWGQGTQVTVSS | high polyreactivity
18 | QVQHVESGGGLVQAGGSLRLSCAASGIIFLFYAMGWYRQARGKERELVAAITGAGSTNYADSVKGRFTISRDNAKNTVYLQMNRLKPEDTAVYYCAARHYARYDYWGQGTQVTVSS | low polyreactivity
19 | QVQLLERGGGLVQAGGSLRLSCMASGSILVDRMSWYRQAPGKEHELVATIYDGGITYYADSMTGRFTISRDNAKNTVYLQMIRQRPEDTAVYYCGASFERYRYHVYCGQGTQVTVSS | low polyreactivity
20 | QVQLVESGGGLVQAGGSLRLSCAASGRIFRGYTMGGYRQAPGKERELVADITKRGGSTDYADSVKGRFTISRDNAKNTVYLQMNSLKPEDTEVYSCAARGPTFGVDYGYWGQGTQVTGSS | high polyreactivity
21 | QVQLVESGGGLVQAGVSLRLSCAASGFTFGRYAMGWYRQAPGKERELVAAISNSGGSTYYADSVKGRFTISRDNAKNTVYLQMNSLKPEATAVYYCAARDSYWSVYYWGQGTQVTVSS | high polyreactivity
22 | QVQLVESGGGLVQAGGSLRLSCAASGSTFDNYAMGWNRQAPGKERELVADITWSGGSTYYADSVKGRFTSSRDNAKNTVYLQMNSLKPEDSAVYYCNSAGYYTKYDYWGQGTQVTVSS | low polyreactivity
23 | QVQLVESGGGLVQAGGSLRLSCAASGFIFYHYAMGWYRQAPGKRRELVAAISYSGGSTYYADSVKGRFTISRDNGKNTVYLQMNSLKPEDPAVYYCNAVYHTRLYTLSTFDYWGQGTQVTVSS | high polyreactivity
24 | QDQHVESGGGLVQAGGSLRLSCAASGRIFFHNAMGWSRQAPGKERELVAAIRSSTGSTYYADSVKGRFTISRDNAKNTVYLQMNSLKPEDTAVYYCARYAYANAYYGKSYWMGYWGQGTQVTVSS | high polyreactivity
25 | QVQLVESGGGLVQAGGSLRLSCAASGFTIGRYTMGWYRQAPGKERELVAAISWSGGSTYYADSVKGRFTISRDNAKNTVYLQMNSLKPEDTAVYYCAKVFRGGRGDYWGQGTQVTVSS | high polyreactivity
26 | QVQLVESGGGLVQAGGSLRLSCAASGHIFYAYAMGWYRQAPGKERELVASITYRGVSTYYADSVKGRFTISRDNAKNTVYLQMNSLKPEDTAVYYCAAGRSRYLWFGRDFDYWGQGTQVTVSS | low polyreactivity
27 | QVQLEESGGGLVHAGGSLRLSSAASGYTFKYYALACYRQAPGKERELVAAISARGGSTYYADSVKGRFTISRDNAKNTVYLQMNSVKPEDTAVYFCAARSGYGPYRMDYWGQGTQVTVSS | high polyreactivity
28 | QVQLVESGGGLVQAGGSLRLSCAASGRIFTPYVMGWYRQAPGKERELVADINLSGDSTSYADSVKGRFTISRDNAKNTVYLQMNSLKPEDTAVYYCNADSYIYVGNDQYDYWGQGTQVTVSS | low polyreactivity
29 | QVQLVESGGGLVQAGGSLRLSCAASGITFTRYAMGWYRQAPGKERELVAAISSGGRTNYADSVKGRFTISRDNAKNTVYLQMNSLKPEDTGVYYCNAAGHRWDPRYHYWGQGTQVTVSS | high polyreactivity
30 | QVQLVESGGGLVQAGGSLRLSCAASGSIFFSYAMGWYRQAPGKERELVAGINWSGGSTYADSVKGRFTISRDNAKNTVYLQMNSLKPEDTAVYYCAAKYYSERSRYHYWGQGTQVTVSS | low polyreactivity
31 | QVQLVESGGGLVQAGGSLRLSCAASGFIFTAYAMGWYRQAPGKERELVAGIRSGSATYYADSVKGRFTISRDNAKNTVYLQMNILKPEDTAVYYCNAEKYNFIYAYEYWGQGTQVTVSS | low polyreactivity
32 | QVQLVESGGGLVQAGGSLRLSCAASGITLSYNDRGWYRQAHGKEREFVAAITGGGSTYYADSVKGRFTISRDNAKNTVYLQMNSLKPEDTEVYYCAAERWYAWTVLYTVSYGYWGQGTQVTVSS | high polyreactivity
